A value given as a limit tells only on which side of the number the result lay.

The target in assay [1] is LRP on mouse embryonic fibroblasts (MEF cells) (mouse, UniProt Q91ZX7 20-4545). Kind of assay: cell-based or functional assay.
For assay [2], the target named is T1, low-density lipoprotein receptor-related protein (LRP), purified (human, UniProt Q07954 20-4544).
T1 construct: mature; also called low density lipoprotein receptor-related protein/α2-macroglobulin receptor; LRP receptor
The assay is described as follows: homologous displacement of ^125I-A2 (5 nM) by unlabeled A2 on LRP-coated wells, LIGAND fit.

The target of assay [3] is T1, low-density lipoprotein …. Kind of assay: heterologous displacement of ^125I-fVIII (1 nM) from immobilised LRP; isolated A2 domain as unlabeled competitor. Here is the method:
(§1) Solid-phase binding assays. […] Microtiter wells were coated with purified LRP or BSA (3 μg/ml) in 50 mM Tris, 0.15 M NaCl, pH 8.0, for 16 h and then blocked with 3% BSA in TBS. […] The radioactivity bound to the wells was counted using a γ-counter (Pharmacia). Affinity constants were derived from homologous and heterologous displacement data using the computer program LIGAND (Munson, P T and Rodbard, D. Anal. Biochem. 107:220-239 (1980)).

The target in assay [4] is T1, low-density lipoprotein …. The assay is described as follows: heterologous displacement of ^125I-fVIII (1 nM) from immobilised LRP; HCh as unlabeled competitor. On the procedure:
as §1

T1 sequence (Q07954 20-4544, form in doubt): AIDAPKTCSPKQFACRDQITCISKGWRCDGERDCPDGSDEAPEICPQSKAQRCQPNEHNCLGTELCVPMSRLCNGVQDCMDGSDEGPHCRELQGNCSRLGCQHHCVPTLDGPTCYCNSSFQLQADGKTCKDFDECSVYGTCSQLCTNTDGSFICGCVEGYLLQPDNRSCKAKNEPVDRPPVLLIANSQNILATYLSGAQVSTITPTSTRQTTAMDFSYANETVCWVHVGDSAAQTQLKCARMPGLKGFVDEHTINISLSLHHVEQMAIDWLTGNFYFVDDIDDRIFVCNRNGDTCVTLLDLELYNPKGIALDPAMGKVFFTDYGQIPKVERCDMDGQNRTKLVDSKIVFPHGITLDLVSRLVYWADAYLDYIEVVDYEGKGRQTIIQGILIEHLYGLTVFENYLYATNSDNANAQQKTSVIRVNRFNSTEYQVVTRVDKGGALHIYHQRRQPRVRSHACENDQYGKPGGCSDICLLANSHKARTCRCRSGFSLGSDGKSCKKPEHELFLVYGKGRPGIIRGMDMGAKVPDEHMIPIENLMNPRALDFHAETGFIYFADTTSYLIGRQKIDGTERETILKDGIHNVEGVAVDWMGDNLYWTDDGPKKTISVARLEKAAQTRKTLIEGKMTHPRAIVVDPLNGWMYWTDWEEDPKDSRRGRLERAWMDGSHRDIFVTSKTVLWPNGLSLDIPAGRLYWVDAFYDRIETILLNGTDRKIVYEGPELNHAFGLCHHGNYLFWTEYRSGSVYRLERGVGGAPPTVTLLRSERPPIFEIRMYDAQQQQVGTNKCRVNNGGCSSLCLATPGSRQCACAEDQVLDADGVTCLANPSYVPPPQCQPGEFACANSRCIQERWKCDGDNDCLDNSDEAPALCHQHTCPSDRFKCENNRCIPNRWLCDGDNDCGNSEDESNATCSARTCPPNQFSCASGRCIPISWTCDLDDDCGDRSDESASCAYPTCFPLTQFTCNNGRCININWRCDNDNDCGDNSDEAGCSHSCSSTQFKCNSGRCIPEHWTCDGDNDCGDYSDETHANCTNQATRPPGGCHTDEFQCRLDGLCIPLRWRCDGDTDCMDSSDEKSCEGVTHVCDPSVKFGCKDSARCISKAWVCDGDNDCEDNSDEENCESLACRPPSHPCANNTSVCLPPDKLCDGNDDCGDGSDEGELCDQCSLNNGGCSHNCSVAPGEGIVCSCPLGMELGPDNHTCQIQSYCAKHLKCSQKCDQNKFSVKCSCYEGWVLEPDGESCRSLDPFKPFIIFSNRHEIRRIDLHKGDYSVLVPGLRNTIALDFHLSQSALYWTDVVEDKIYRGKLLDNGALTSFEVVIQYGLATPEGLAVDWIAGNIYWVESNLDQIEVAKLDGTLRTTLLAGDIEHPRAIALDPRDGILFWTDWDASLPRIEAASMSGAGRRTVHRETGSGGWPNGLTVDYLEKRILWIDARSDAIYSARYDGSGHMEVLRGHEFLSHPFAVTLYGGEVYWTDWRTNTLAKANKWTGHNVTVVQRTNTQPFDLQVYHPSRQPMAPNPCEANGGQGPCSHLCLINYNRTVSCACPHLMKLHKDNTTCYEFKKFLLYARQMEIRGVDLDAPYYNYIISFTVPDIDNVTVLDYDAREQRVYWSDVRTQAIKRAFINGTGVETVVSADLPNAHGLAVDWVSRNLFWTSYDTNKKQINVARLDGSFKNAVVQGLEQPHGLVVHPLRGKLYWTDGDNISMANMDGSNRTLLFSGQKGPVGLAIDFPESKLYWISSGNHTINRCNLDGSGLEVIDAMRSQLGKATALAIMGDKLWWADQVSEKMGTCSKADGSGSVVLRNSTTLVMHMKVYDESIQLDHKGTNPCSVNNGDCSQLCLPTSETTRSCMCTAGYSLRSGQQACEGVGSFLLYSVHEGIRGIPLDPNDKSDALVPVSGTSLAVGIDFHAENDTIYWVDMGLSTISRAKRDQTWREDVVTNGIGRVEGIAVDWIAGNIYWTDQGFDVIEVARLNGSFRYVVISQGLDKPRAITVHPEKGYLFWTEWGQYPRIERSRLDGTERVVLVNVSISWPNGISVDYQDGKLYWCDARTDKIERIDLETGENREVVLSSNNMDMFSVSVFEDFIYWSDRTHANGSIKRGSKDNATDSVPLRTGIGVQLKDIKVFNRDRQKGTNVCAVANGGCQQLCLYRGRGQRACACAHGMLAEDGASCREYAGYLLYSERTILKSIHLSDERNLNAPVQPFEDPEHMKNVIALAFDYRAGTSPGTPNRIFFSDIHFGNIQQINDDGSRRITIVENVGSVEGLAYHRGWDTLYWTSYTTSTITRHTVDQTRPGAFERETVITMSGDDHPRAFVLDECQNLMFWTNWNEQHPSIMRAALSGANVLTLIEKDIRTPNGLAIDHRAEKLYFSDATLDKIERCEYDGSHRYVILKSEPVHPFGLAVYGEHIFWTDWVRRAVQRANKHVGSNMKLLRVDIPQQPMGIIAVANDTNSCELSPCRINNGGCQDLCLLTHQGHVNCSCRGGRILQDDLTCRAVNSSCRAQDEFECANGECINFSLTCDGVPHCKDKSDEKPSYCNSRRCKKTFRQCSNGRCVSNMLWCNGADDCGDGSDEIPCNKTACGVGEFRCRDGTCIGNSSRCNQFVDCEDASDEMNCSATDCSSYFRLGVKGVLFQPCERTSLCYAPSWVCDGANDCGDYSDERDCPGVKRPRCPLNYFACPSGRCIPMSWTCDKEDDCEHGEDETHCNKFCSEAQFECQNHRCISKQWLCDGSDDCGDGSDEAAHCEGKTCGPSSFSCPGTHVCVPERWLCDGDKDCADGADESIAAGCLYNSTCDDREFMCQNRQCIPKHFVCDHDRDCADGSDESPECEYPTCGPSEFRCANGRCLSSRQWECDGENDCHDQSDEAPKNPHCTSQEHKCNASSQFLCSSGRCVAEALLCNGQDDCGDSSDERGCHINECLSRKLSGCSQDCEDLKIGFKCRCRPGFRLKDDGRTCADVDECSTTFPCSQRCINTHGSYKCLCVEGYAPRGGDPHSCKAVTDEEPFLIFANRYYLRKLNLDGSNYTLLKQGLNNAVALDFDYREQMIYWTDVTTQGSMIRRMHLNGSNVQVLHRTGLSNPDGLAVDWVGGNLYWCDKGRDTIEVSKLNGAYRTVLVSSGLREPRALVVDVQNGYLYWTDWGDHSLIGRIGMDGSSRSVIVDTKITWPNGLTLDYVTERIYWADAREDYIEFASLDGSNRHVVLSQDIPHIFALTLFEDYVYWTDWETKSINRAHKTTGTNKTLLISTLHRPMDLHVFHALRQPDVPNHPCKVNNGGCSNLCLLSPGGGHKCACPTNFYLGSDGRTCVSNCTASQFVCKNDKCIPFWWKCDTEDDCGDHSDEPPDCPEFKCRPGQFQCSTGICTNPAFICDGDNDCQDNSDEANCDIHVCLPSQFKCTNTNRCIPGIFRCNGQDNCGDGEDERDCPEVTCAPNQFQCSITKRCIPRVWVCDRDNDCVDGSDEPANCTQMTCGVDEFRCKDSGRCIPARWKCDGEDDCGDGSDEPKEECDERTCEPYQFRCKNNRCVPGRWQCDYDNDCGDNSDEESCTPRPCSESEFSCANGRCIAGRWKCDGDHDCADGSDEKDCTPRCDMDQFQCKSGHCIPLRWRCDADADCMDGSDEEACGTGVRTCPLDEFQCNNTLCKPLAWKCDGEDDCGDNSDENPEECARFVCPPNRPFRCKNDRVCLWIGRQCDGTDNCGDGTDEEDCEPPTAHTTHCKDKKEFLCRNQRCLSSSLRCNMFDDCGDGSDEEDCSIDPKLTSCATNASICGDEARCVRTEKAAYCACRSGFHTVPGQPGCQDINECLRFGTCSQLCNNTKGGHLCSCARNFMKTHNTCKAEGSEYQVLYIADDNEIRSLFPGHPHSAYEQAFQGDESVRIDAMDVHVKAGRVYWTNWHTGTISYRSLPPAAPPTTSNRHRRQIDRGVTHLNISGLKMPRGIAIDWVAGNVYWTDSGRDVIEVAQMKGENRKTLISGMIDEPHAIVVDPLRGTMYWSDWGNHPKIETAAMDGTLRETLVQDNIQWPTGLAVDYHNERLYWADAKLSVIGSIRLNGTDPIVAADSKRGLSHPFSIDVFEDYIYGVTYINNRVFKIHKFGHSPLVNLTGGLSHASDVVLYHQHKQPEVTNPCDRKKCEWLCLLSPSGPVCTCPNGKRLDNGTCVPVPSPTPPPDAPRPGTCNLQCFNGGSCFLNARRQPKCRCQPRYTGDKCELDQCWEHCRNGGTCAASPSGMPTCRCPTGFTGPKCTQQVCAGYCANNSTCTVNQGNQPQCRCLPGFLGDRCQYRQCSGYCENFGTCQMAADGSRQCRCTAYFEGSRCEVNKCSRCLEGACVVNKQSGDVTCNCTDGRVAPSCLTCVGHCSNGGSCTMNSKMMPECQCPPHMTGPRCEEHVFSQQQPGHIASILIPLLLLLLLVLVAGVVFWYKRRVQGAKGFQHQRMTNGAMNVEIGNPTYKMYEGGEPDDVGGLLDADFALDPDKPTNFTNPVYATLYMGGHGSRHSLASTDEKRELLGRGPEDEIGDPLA

B1: A2 subunit of factor VIII, plasma-derived (from thrombin-activated fVIII) (other)
chain: SVAKKHPKTWVHYIAAEEEDWDYAPLVLAPDDRSYKSQYLNNGPQRIGRKYKKVRFMAYTDETFKTREAIQHESGILGPLLYGEVGDTLLIIFKNQASRPYNIYPHGITDVRPLYSRRLPKGVKHLKDFPILPGEIFKYKWTVTVEDGPTKSDPRCLTRYYSSFVNMERDLASGLIGPLLICYKESVDQRGNQIMSDKRNVILFSVFDENRSWYLTENIQRFLPNPAGVQLEDPEFQASNIMHSINGYVFDSLQLSVCLHEVAYWYILSIGAQTDFLSVFFSGYTFKHKMVYEDTLTLFPFSGETVFMSMENPGLWILGCHNSDFRNRGMTALLKVSSCDKNTGDYYEDSYEDISAYLLSKNNAIEPR
notes: Radio-iodinated where used as tracer; also called A2 domain; plasma-derived A2
Broadly, the Kd is a measure of binding affinity in units of concentration. A high value points to a looser complex. What is called Ki is the equilibrium dissociation constant of an inhibitor or competing ligand from its target. The low end stands for a stronger hold on the target, the high end for a looser hold on the target. B1: in assay [1], the “inhibition of degradation of ^125I-fVIII/vWf complex by MEF cells by a 1000-fold excess of A2” value is more than 60% and the “inhibition of internalization of ^125I-fVIII/vWf complex by MEF cells by a 1000-fold excess of A2” value was more than 70%. In addition, binding in assay [2] was put at a Kd of 130 nM. Affinity in assay [3] was put at a Ki of 132 nM.

B2: heavy chain of factor VIII (HCh) (other)
chain: ATRRYYLGAVELSWDYMQSDLGELPVDARFPPRVPKSFPFNTSVVYKKTLFVEFTDHLFNIAKPRPPWMGLLGPTIQAEVYDTVVITLKNMASHPVSLHAVGVSYWKASEGAEYDDQTSQREKEDDKVFPGGSHTYVWQVLKENGPMASDPLCLTYSYLSHVDLVKDLNSGLIGALLVCREGSLAKEKTQTLHKFILLFAVFDEGKSWHSETKNSLMQDRDAASARAWPKMHTVNGYVNRSLPGLIGCHRKSVYWHVIGMGTTPEVHSIFLEGHTFLVRNHRQASLEISPITFLTAQTLLMDLGQFLLFCHISSHQHDGMEAYVKVDSCPEEPQLRMKNNEEAEDYDDDLTDSEMDVVRFDDDNSPSFIQIRSVAKKHPKTWVHYIAAEEEDWDYAPLVLAPDDRSYKSQYLNNGPQRIGRKYKKVRFMAYTDETFKTREAIQHESGILGPLLYGEVGDTLLIIFKNQASRPYNIYPHGITDVRPLYSRRLPKGVKHLKDFPILPGEIFKYKWTVTVEDGPTKSDPRCLTRYYSSFVNMERDLASGLIGPLLICYKESVDQRGNQIMSDKRNVILFSVFDENRSWYLTENIQRFLPNPAGVQLEDPEFQASNIMHSINGYVFDSLQLSVCLHEVAYWYILSIGAQTDFLSVFFSGYTFKHKMVYEDTLTLFPFSGETVFMSMENPGLWILGCHNSDFRNRGMTALLKVSSCDKNTGDYYEDSYEDISAYLLSKNNAIEPRSFSQNSRHRSTRQKQFNATTIPENDIEKTDPWFAHRTPMPKIQNVSSSDLLMLLRQSPTPHGLSLSDLQEAKYETFSDDPSPGAIDSNNSLSEMTHFRPQLHHSGDMVFTPESGLQLRLNEKLGTTAATELKKLDFKVSSTSNNLISTIPSDNLAAGTDNTSSLGPPSMPVHYDSQLDTTLFGKKSSPLTESGGPLSLSEENNDSKLLESGLMNSQESSWGKNVSSTESGRLFKGKRAHGPALLTKDNALFKVSISLLKTNKTSNNSATNRKTHIDGPSLLIENSPSVWQNILESDTEFKKVTPLIHDRMLMDKNATALRLNHMSNKTTSSKNMEMVQQKKEGPIPPDAQNPDMSFFKMLFLPESARWIQRTHGKNSLNSGQGPSPKQLVSLGPEKSVEGQNFLSEKNKVVVGKGEFTKDVGLKEMVFPSSRNLFLTNLDNLHENNTHNQEKKIQEEIEKKETLIQENVVLPQIHTVTGTKNFMKNLFLLSTRQNVEGSYDGAYAPVLQDFRSLNDSTNRTKKHTAHFSKKGEEENLEGLGNQTKQIVEKYACTTRISPNTSQQNFVTQRSKRALKQFRLPLEETELEKRIIVDDTSTQWSKNMKHLTPSTLTQIDYNEKEKGAITQSPLSDCLTRSHSIPQANRSPLPIAKVSSFPSIRPIYLTRVLFQDNSSHLPAASYRKKDSGVQESSHFLQGAKKNNLSLAILTLEMTGDQREVGSLGTSATNSVTYKKVENTVLPKPDLPKTSGKVELLPKVHIYQKDLFPTETSNGSPGHLDLVEGSLLQGTEGAIKWNEANRPGKVPFLRVATESSAKTPSKLLDPLAWDNHYGTQIPKEEWKSQEKSPEKTAFKKKDTILSLNACESNHAIAAINEGQNKPEIEVTWAKQGRTERLCSQNPPVLKRHQR
notes: Prepared from plasma-derived fVIII
Turning to B2, the affinity in assay [4] corresponds to a Ki of 120 nM.

These data come from patent US20070232789A1 (UNIVERSITY OF MARYLAND BALTIMORE, published 2007).
